# Measured values: a protein production outcome set (Wang et al. 2014)
# Assay: label from the status in PepcDB records
row,Sequence,protein production
1,MSILMLFGLATLRSATYGENEQLFTRQIVWDIAGFSLMFLVLFIKDRTIRNFSIILYVFSVVLLAALLVKGTPIGGSKRWFRVMGFSFQPSDFAKLSLIVLLPYLLEKRWFWRSFFLTVVPAVLIFLEPDLGTTLSVGLIWLFAVLASNVNKKPLVILLILVLVFLPVFFFFGLKDYQRARILSFLNPEEYGESYSYNVLQSIHAIGAGGLFGAGYMKGKANLMGYVPVSYTDFIVSVIGEEFGFIGIVFLLSLFGLLFFEVSRWILNVKDEYWEILMVSACGLIWFHVFENVSMNLGLLPVTGVPLPFISYGGTSTLVFSILVGLILKGIALARVEKKL,failed
2,MSIPLLEYAPSSQNQRVEGYEVPNEDTPTIYRLAAAIDDADVDAIIWAGYRQIFSEHLIIKSNRQSFLESQLRNRAINVRDFIRGLGKSEVYRTQVADLNSNYRLVDITLKRFLGRAAYNQDEEIAWSIVIGSQGLHGFIDALLDSDEYRENFGDDIVPYQRRRYKDRPFNLVNPRYNAYWRDRQTLNALGGRSFYSARTSGTLTKDDIRRAIPANFMALAGKILTPERNYQRTIASVTSQIKDIKIPDTSREVTTPEVTVKPVAVALPYRYIPGNKTT,failed
3,MSISISSIPDLTTVRARHPEAIAEAAARRVRRPLIGDSGRLMIVAADHPARGALGVGDRGLAMANRADLLERLCTALSRPGVDGVLATADVLEDLLLLGVLENKVVMGSMNRGGLAGAAFEMDDRFTGHRAEDIARLRFDAGKLLLRIDYDDPGSLTTMEASARAVDAMAARELPLFVEPFISRRIDGRVRNDLSAEAVTRSVAIASGLGGTSAYTWLKLPVTRNPDDMAEVLETSTLPAVLLGGDIGGSPADQTAAYERWRKALRLPTVQGMVVGRSLLYPAGGSVEEAVDTAVGLL,failed
4,MSISSHDVGRTYPTTDPYLVTAEKIRELATALGDNAPAYRGDDPIAPPTFAMVLASRAWEALFDDEQLDLRLEHMIHTDQSFHWIRPLHEGDEVTAALTITSVRTRGNTDIIGINVSLDHVDGEHLGNATSTLWHTRPEGNA,failed
5,MSKDGLSNDQVSSMKEAFMLFDTDGDGKIAPSELGILMRSLGGNPTESQLKSIITTENLSSPFDFNRFLDLMAKHLKTEPFDRQLRDAFKVLDKEGTGFVAVADLRHILTSIGEKLQPSEFDEWIKEVDVGSDGKIRYEDFIARMVAK,failed
6,MSKDSNKIIEQSREIGISIIMPLYNVEEVILETLESIHEQTFDSYEVLLIDDGSTDKTIEIVTEYIKDKPRFKLYTQPNGGPASARNHGLRLAIGMYICFVDSDDILPNYSLQLMYDGAISTGAKLITGATKRFNSEGEWFIPMHIQYNIAKPGMKTLLKNPELFYSIGPCAKLYHHSLIDGVFFPENIRYGEDQPFVLHALLQAKDIYTVEKVVYYYRLRDGESQSLTQSVDKDPIRILKSVFQIFDYGEEELKKNNTDYEVALKYYQRVSSVELWGALRAAIESKKSENQKIAFTMTLDWLKTKSDDFLNIIPSFRYFLLFSSIERVRYITKDNKENYRNLIGYLWSRQGEEAKIAFRKTYPIPMKAALQIIENNNWRDARKISFKFIVRRKFKAPILIRKISRGIIFRIATLMPRKKNQVILATERSTTLEGNLLAIYDYMFYNNMPQKVYVFLRKNRNWFEMFQLYYTLGRTKTIVLDDYYNKIYGLKFNKNTHVVQSWHATGAFKKFGFSALEGTDANTEEFETRAHSPYTDVLVSSEGIIPEYMEAFRKQANQIKPIGVPRTDVFFDDEYVNYTKEKYMKMYPQLRDKKILLYAPTFRGGPNERFNYSVVLDIAALKKELGDTHILILKFHPVIKNVSFNVEEDDPFILNLTLNNDINDLMLFSDALITDYSSVIFEFSLMNKPIYFFAYDIDDYLDERGFYFDYKATIPGEVFRDTPSLIEAVKSGLYNYDELEIFKKKFVGSLDGNSTKRFVETYIGKANEKVKDILEHHHHHH,not failed
7,MSKEMRSRLFSILKVVFAVALFSIVVFTLYKELSHINIKETIQSFGKINRVWLVALFVIGGASIIVLSMYDVILAKSLNLKISLLKTIRVGYIVNALNAVVGFGGFIGASVRFLFYKNATDDKRALLHTISIVLISMLTGLSLLSILVVIHVFDVSHLFTPYPWIKWLMYVVALFLPVFVIFTILRPVQENQKLLGVYCTIVSSIEWLVAALVLYMALTMVGVHVPISIFMGIFIIAALSGLISFIPGGFGTFDLVVLLGLKHLNIDEESIVLGLLLYRFAYYLFPVLVALILSTFEFRGTAKRYWEDARILVPVRDMTSLLSSYQKDIIARAPSFSIAILLMFTSLLFFLNNLTIIYDGLYDPNHYIYYIIVSVHTCACLLLLLNVVGVYRLSKRAILFSIISIILIFIVTAYTYASFILLSWLVVMLILLFIFYRRARVIKRPFRYLKLCLSFIMGALVLYINHIVIASTFYTLDIYHIEIDTSILRYYFWFTILLVAVIVGLIVWWFEYRYRISNTREDTKICASIVKQYGGNYLSHLMYSGDKKFFINENEDAFIMYRYQRNAYIVLGDPIGNPQSFYSLLESFYQEAEYLGYDIIFYQVTDRNMSLYHSFGNQFFKLGEEAVIDLNEFKISGKKKRGLRATLNKLDDLKYTFEVIEPPFTQALITDLKTISDEWLADKKEMHFSVGSFNESYLSKAPIAIIKDSDGLIIAFCTLMPTYYKGTISVDLIRWKPDCTLPLMDGLYLNMLLWSQKQNYQHFNMGMATLSNVGQLPYSFYGERIAGRVFEHFNGLYRFQGLRKYKEKFNPNWEPRFLVYRKRHSLWLSMIKVMRVIRKHK,failed
8,MSKHKFMIYFLTTTLVLPTFTTSIAHAEDTNEDDKMKSSSTQEEQTNHNEDVNDNNTNEASQPDDTQSDNTSSEAPTKEDSKNKIKREKSKSSNTSSEEKDDDNTSVSRSHQKRDKDTNNTYRTPLSPIFDATHSSGLPASNFLNPDLYQNGFSLTHLIASLFNFDSDISDYEQPASTNETDDDTHSTNEQDTDSQDQDQTEHSASSSDTTNREHDDVQQSSEKANQSDKTSRQDEIDTKQQSTANQDKDDASVSKALDAIDDFVSDETDDDKDNQGSNNTDTTNHQSYNDDTSTDSKNDSSKTSSSDSNSLSESALDTVLDKYSEDAKKTHQDFESSKKDNETNTSKGEKTKNNTTKASNPQLPTKKELEHKTTPAQSFEDDFKQSNTRSTSLFQTLPQLNGSDVTDGDITVVENKGTRDFIKSIAKDAHKIGQDKDLYASVMIAQAILESSSGNSTLAQAPNYNLFGIKGSYKGQSVNFNTLEAGSDNSMFSINAGFRKYPSTKASLEDYADLIKNGIDGNPTIYKPTWKHEAIDYRDATRHLSRTYATDPNYATKLNSLIKHYHLTDFDKKKMPDLDRYAKQTSSGEDASGSEFKSFEITDSSSPYPQGQCTWYVYERVQQFGKKVGSDWGDAHNWDNRAESDNYDVSQTPSTHSAVVFEAGQAGAHDIYGHVAFVEKVNKDGSIVISESNVKGLGIVSYRTIDASTAEDLHYIEPK,failed
9,MSKIEDIRKFYARLMAANAASSDPRLEQVFATVPREAFLGPGPWTIVAGSGRVTTPSADPAHIYQNVLVALDADKGINNGEPFLHAMWIGKLAPKPGEAVTHVGAGTGYYSAVLARLVSPGGTVTAFELEGRLADLARKNLEIYGNATVIHGDAVTRPLPPSDIIYVNAGVVAPPVGWLKALRPGGRMIFPWRPSERVPLAVMVTRTEKGFACDPFMRSWFIPCIGASVADLAAKIPTPEQATRSRSIWLTQHKAPDRTATAIFGDVWFSTKDVRAKPGS,failed
10,MSKIEIFEAAGCCATSSVVVSDEAVKWNASAEWAKKHGVNIQRYSLAKNPQQFLNTPVIRAFLNTSGMESLPATLLDGQLVMAGKLPSREDIARWAG,not failed
11,MSKIFNEELAVIEAAAIAYLTAFNRADIPAVIATYTDDGVLMGPGRPAAVGKDELAEVYLSVFETVGFDMAYEIKEVVQTSADWAFVRSATEGTETNKATGVVTPAAYQELFLLRKSATGSWQTARYCTSKISP,not failed
12,MSKITFKDIYIDGNKITEDSRKAIYLLPPQPLKYASNTWIYKTMPTMNQWLKDIEVQKKMHLNQSSYHLSFSFPANEKIDEVLLEKIRELGFQIGVLELYVIEAKALKELSRKRDVDIQLVSSNNINDYLHVYDAFARPFGDSYANMVKQHIYSSYNLDDIERLVAYVNHQPVGIVDIIMTDKTIEIDGFGVLEEFQHQGIGSEIQAYVGRMANERPVILVADGKDTAKDMYLRQGYVYQGFKYHILKENI,not failed
13,MSKKKGLSAEEKRTRMMEIFSETKDVFQLKDLEKIAPKEKGITAMSVKEVLQSLVDDGMVDCERIGTSNYYWAFPSKALHARKHKLEVLESQLSEGSQKHASLQKSIEKAKIGRCETEERTRLAKELSSLRDQREQLKAEVEKYKDCDPQVVEEIRQANKVAKEAANRWTDNIFAIKSWAKRKFGFEENKIDRTFGIPEDFDYID,failed
